Data published in PMC4157841, “Ethylmalonic Encephalopathy ETHE1 R163W/R163Q Mutations Alter Protein Stability and Redox Properties of the Iron Centre” (PLoS ONE, 2014).

B1: Human ETHE1 wild type (enzyme, UniProt O95571 8-254, looked up)
chain: VARRQLSQRGGSGAPILLRQMFEPVSCTFTYLLGDRESREAVLIDPVLETAPRDAQLIKELGLRLLYAVNTHCHADHITGSGLLRSLLPGCQSVISRLSGAQADLHIEDGDSIRFGRFALETRASPGHTPGCVTFVLNDHSMAFTGDALLIRGCGRTDFQQGCAKTLYHSVHEKIFTLPGDCLIYPAHDYHGFTVSTVEEERTLNPRLTLSCEEFVKIMGNLNLPKPQQIDFAVPANMRCGVQTPTA
notes: Holds about 1 mol iron per mol protein; also called ETHE1-WT; wild-type ETHE1; source: E. coli Bl21 DE3, purified (His-trap HP, Superdex 75 size exclusion)
B2: Human ETHE1-p.Arg163Trp (enzyme, UniProt O95571 8-254, looked up)
chain: VARRQLSQRGGSGAPILLRQMFEPVSCTFTYLLGDRESREAVLIDPVLETAPRDAQLIKELGLRLLYAVNTHCHADHITGSGLLRSLLPGCQSVISRLSGAQADLHIEDGDSIRFGRFALETRASPGHTPGCVTFVLNDHSMAFTGDALLIRGCGWTDFQQGCAKTLYHSVHEKIFTLPGDCLIYPAHDYHGFTVSTVEEERTLNPRLTLSCEEFVKIMGNLNLPKPQQIDFAVPANMRCGVQTPTA
notes: also called ETHE1 R163W; source: E. coli Bl21 DE3, purified (His-trap HP, Superdex 75 size exclusion)
B3: Human ETHE1-p.Arg163Gln (enzyme, UniProt O95571 8-254, looked up)
chain: VARRQLSQRGGSGAPILLRQMFEPVSCTFTYLLGDRESREAVLIDPVLETAPRDAQLIKELGLRLLYAVNTHCHADHITGSGLLRSLLPGCQSVISRLSGAQADLHIEDGDSIRFGRFALETRASPGHTPGCVTFVLNDHSMAFTGDALLIRGCGQTDFQQGCAKTLYHSVHEKIFTLPGDCLIYPAHDYHGFTVSTVEEERTLNPRLTLSCEEFVKIMGNLNLPKPQQIDFAVPANMRCGVQTPTA
notes: also called ETHE1 R163Q; source: E. coli Bl21 DE3, purified (His-trap HP, Superdex 75 size exclusion)

Target: the molecule itself
Experiment: SEC; Superdex 75 in 50 mM Tris-HCl pH 7.5, 150 mM NaCl, column calibrated with standard proteins; native molecular mass determined; data not shown

| Protein | stoichiometry N |
| --- | --- |
| B1 | 2 |
| B2 | 2 |
| B3 | 2 |
